Source: paper PMC10330345 (2023)
Positions count from the first letter of the chain named. Values belong to the binder of their own block, whether it stands above or below them.

Molecular target: BTN3A1 272-513 (Homo sapiens, UniProt O00481)
Test: ITC

Chain of BTN3A1 272-513 (O00481 272-513): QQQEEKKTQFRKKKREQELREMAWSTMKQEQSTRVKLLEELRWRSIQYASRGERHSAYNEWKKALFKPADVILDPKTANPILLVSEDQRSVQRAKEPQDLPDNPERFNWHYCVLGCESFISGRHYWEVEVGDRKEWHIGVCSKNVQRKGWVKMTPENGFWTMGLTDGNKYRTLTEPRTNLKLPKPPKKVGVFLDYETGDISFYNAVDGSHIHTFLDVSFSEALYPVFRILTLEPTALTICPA

Kd: 710 nM
B1: BTN2A1 271-527 (protein)
chain: KLQKEKKILSGEKEFERETREIALKELEKERVQKEEELQVKEKLQEEGRARRTFLHAVDVVLDPDTAHPDLFLSEDRRSVRRCPFRHLGESVPDNPERFDSQPCVLGRESFASGKHYWEVEVENVIEWTVGVCRDSVERKGEVLLIPQNGFWTLEMHKGQYRAVSSPDRILPLKESLCRVGVFLDYEAGDVSFYNMRDRSHIYTCPRSAFSVPVRPFFRLGCEDSPIFICPALTGANGVTVPEEGLTLHRVGTHQSL

Kd: 670 nM
B2: BTN2A1 271-527 (protein)
chain: B1 chain with G48L

Kd: 1160 nM
B3: BTN2A1 271-527 (protein)
chain: B1 chain with A50W
